This passage reports Time (hours) to 80% max killing of HeLa cells by transduced primary T cells (hours to 80% max killing (E:T 4:1)) and EC50, Jurkat NFAT luciferase, HEK293 cells transfected with titrated MSLN mRNA (MSLN molecules/cell) results from patent US20230277590A1.

The target in experiment [1] is Mesothelin (MSLN) on target cells (human).
Experiment [2] has the same target. This is another data set of the same source.

M5 MSLN CAR, third generation: the Time (hours) to 80% max killing of HeLa cells by transduced primary T cells (hours to 80% max killing (E:T 4:1)) in experiment [1] came out at 28.

Consider m912 MSLN CAR (Gen3), for which the EC50, Jurkat NFAT luciferase, HEK293 cells transfected with titrated MSLN mRNA (MSLN molecules/cell) in experiment [2] was found to be 80000.
